Results: patent publication US20120172293A1 (Takeda / Millennium, published 2012)

Columns and labels:
[1] = target: human Y2 receptor (human) (UniProt P49146); experiment: RBA: displacement of [125I]-PYY from hY2R/CHO membranes
[2] = target: human Y2 receptor (human) (UniProt P49146); experiment: cell-based or functional assay

Sequence of human Y2 receptor (human) (P49146 whole entry): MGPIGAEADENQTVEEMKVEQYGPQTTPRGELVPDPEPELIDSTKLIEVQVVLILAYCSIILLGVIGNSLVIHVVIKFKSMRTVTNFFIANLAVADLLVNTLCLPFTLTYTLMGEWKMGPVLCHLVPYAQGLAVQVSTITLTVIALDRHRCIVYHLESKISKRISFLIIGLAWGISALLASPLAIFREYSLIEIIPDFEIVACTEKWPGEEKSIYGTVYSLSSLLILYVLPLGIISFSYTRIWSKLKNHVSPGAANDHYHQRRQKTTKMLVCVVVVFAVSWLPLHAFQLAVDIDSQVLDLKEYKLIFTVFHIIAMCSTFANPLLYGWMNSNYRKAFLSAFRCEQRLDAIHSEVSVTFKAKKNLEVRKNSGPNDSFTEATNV

Substance	IC50 Ratio (IC50 compound/IC50 PYY(3-36)) [1]	GBA EC50 Ratio ([35S]GTPγS binding) (EC50 compound/EC50 PYY(3-36)) [2]
Morpholinocarbonyl-[D-Pro24, Pya(4)26, Cha27,36, Aib28,31, Lys30]-PYY(23-36) (peptide)	0.89	0.57
Ac-[D-Pro24, Pya(4)26, Cha27,36, D-Iva28, Lys30, Aib31]-PYY(23-36) (peptide)	1.7	2.6
Ac-[Dap22, D-Pro24, Pya(4)26, Cha27,36, Aib28,31, Lys30]-PYY(22-36) (peptide)	1.2	1.6
Ac-[D-Pro24, Abu26, Cha27,36, Aib28,31, Lys30]-PYY(23-36) (peptide)	2.3	0.98
4-Imidazolecarbonyl-[Aib24,28,31, Iva25, Pya(4)26, Cha27,36, Lys30]-PYY(23-36) (peptide)	1.9	1.7
Ac-[D-Pro24, Pya(4)26, Cha27, Aib28,31, Lys30, Phe(2,6-Me2)36]-PYY(23-36) (peptide)	0.52	0.59
Ac-[D-Pro24, Arg(Me)25, Pya(4)26, Cha27,36, Aib28,31, Lys30]-PYY(23-36) (peptide)	1.1	1.3
(Tetrahydro-2H-pyran-4-ylmethyl)carbamoyl-[D-Pro24, Pya(4)26, Cha27,36, Aib28,31, Lys30]-PYY(23-36) (peptide)	0.82	0.7
Ac-[D-Pro24, Pya(4)26, Ala(4Pip)27, Aib28,31, Lys30, Cha36]-PYY(23-36) later peak (peptide)	3.8	3.9
Ac-[D-Pro24, Pya(4)26, Cha27,36, Aib28,31, Arg(Me)30]-PYY(23-36) (peptide)	1.1	1.2
Ac-[D-Pro24, Pya(4)26, Phe(4F)27, Aib28,31, Lys30, Cha36]-PYY(23-36) (peptide)	10	3.9
(5-carboxypentyl)carbamoyl-[D-Pro24, Pya(4)26, Cha27,36, Aib28,31, Lys30]-PYY(23-36) (peptide)	1.2	1.5
[(1S)-1-Carboxy-2-(4-hydroxyphenyl)ethyl]carbamoyl-[D-Pro24, Pya(4)26, Cha27,36, Aib28,31, Lys30]-PYY(23-36) (peptide)	0.95	1.2
Ac-[D-Pro24, Cit25, Pya(4)26, Cha27,36, Aib28,31, Lys30]-PYY(23-36) (peptide)	2.8	2.2
4-Imidazolecarbonyl-[D-Pro24, Pya(4)26, Cha27,36, Aib28,31, Lys30]-PYY(23-36) (peptide)	0.76	1.1
Ac-[D-Pro24, Pya(4)26, Ala(4Pip)27, Aib28,31, Lys30, Cha36]-PYY(23-36) former peak (peptide)	17	11
Ac-[D-Pro24, Pya(4)26, Nal(1)27, Aib28,31, Lys30, Cha36]-PYY(23-36) (peptide)	2.9	1.7
